The values that follow come from PMC10879702, “Host ZCCHC3 blocks HIV-1 infection and production through a dual mechanism”.

The test system of series [1] is GST-ZCCHC3 MF R247S (human). Nature of the series: pull-down.
The test system of series [2] is GST-ZCCHC3 MF R168S (human). Nature of the series: pull-down.
Series [3] has as its system GST-ZCCHC3 MF R168/247S (human). Nature of the series: pull-down.
In series [4] the target is T1, GST-ZCCHC3 MF (middle-fold domain) (human, UniProt Q9NUD5 159-334).
T1 sequence: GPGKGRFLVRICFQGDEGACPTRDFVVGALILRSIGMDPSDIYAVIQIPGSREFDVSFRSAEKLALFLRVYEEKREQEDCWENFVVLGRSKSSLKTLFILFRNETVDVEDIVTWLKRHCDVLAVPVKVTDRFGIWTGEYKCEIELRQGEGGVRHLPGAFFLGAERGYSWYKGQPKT
Put plainly: pull-down. Conditions: protein: recombinant; tags: GST; hairpin.

In series [5] the target is T1, GST-ZCCHC3 MF (middle-fold domain). Put plainly: pull-down; Pull-down: 20 mM Tris-HCl pH 7.4, 30 mM NaCl, 0.1 mM MgCl2, 1 mM DTT, RNase inhibitor, 10 min; EMSA: 40 mM Tris pH 8.0, 2 mM KCl, 1 mM MgCl2, 1% NP-40, 1 mM DTT, 25 C, 10 min. The following applies: protein: recombinant; tags: GST; hairpin. For orientation: Mobility shift assays separate free from complexed probe on a gel.

In the case of HIV-1 5' LTR (R-U5) RNA, the binding signal was 50 % of WT in series [1], 50 % of WT in series [2] and 15 % of WT in series [3].
With CCACUGCUUAAGCCUCAAUAAAGCUUGCCUUGAGUGCUCAAAGUAGUGU (structured_RNA) [HIV-1 LTR SL2], the binding result in series [4] is given as “binds”.
Turning to CUAGAGAUCCCUCAGACCCUUUUAGUCAGUGUGGAAAAUCUCUAG (structured_RNA) [HIV-1 LTR SL3], the binding result in series [5] is on record as “binds”.
For UCUCUGGUUAGACCAGAUCUGAGCCUGGGAGCUCUCUGGCUAACUAGGGA (structured_RNA) [HIV-1 LTR SL1], the binding result in series [4] is “binds”.
